Data on eight molecules can be found in patent US20240261333A1, “NOVEL TARGETS FOR ENHANCING ANTI-TUMOR IMMUNITY” (THE BROAD INSTITUTE, INC., priority 2021, published 2024).

The chains are these.
T1: B3GNT2 (Homo sapiens, UniProt Q9NY97)
T1 construct: The respective ORFs of candidate genes [CD274 (NM_014143), MCL1 (NM_021960), JUNB (NM_002229), and B3GNT2 (NM_006577)] were synthesized; expressed in transfected cells; host or cells: A375 melanoma cells (lentiviral ORF overexpression)
T1 sequence (Q9NY97 1-397): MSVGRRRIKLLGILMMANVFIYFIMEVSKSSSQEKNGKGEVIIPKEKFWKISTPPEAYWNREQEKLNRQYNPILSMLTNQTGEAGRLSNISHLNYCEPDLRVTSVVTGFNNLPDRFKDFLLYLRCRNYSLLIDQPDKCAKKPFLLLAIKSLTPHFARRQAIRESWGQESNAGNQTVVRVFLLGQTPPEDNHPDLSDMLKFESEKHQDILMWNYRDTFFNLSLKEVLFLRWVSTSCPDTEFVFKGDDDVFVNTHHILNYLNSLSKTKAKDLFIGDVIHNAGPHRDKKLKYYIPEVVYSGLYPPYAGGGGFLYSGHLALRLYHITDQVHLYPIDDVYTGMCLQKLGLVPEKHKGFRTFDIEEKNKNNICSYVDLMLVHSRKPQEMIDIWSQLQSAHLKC

B1: LOXL4 (protein)
chain: QSLGTTKLRLVGPESKPEEGRLEVLHQGQWGTVCDDNFAIQEATVACRQLGFEAALTWAHSAKYGQGEGPIWLDNVRCVGTESSLDQCGSNGWGVSDCSHSEDVGVICHPRRHRGYLSETVSNALGPQGRRLEEVRLKPILASAKQHSPVTEGAVEVKYEGHWRQVCDQGWTMNNSRVVCGMLGFPSEVPVDSHYYRKVWDLKMRDPKSRLKSLTNKNSFWIHQVTCLGTEPHMANCQVQVAPARGKLRPACPGGMHAVVSCVAGPHFRPPKTKPQRKGSWAEEPRVRLRSGAQVGEGRVEVLMNRQWGTVCDHRWNLISASVVCRQLGFGSAREALFGARLGQGLGPIHLSEVRCRGYERTLSDCPALEGSQNGCQHENDAAVRCNVPNMGFQNQVRLAGGRIPEEGLLEVQVEVNGVPRWGSVCSENWGLTEAMVACRQLGLGFAIHAYKETWFWSGTPRAQEVVMSGVRCSGTELALQQCQRHGPVHCSHGGGRFLAGVSCMDSAPDLVMNAQLVQETAYLEDRPLSQLYCAHEENCLSKSADHMDWPYGYRRLLRFSTQIYNLGRTDFRPKTGRDSWVWHQCHRHYHSIEVFTHYDLLTLNGSKVAEGHKASFCLEDTNCPTGLQRRYACANFGEQGVTVGCWDTYRHDIDCQWVDITDVGPGNYIFQVIVNPHYEVAESDFSNNMLQCRCKYDGHRVWLHNCHTGNSYPANAELSLEQEQRLRNNLI
B2: DPM1 (protein, UniProt O60762 2-260, looked up)
Dolichol-phosphate …: ASLEVSRSPRRSRRELEVRSPRQNKYSVLLPTYNERENLPLIVWLLVKSFSESGINYEIIIIDDGSPDGTRDVAEQLEKIYGSDRILLRPREKKLGLGTAYIHGMKHATGNYIIIMDADLSHHPKFIPEFIRKQKEGNFDIVSGTRYKGNGGVYGWDLKRKIISRGANFLTQILLRPGASDLTGSFRLYRKEVLEKLIEKCVSKGYVFQMEMIVRARQLNYTIGEVPISFVDRVYGESKLGGNEIVSFLKGLLTLFATT
B3: SLC25A3 (protein)
chain: AVEEQYSCDYGSGRFFILCGLGGIISCGTTHTALVPLDLVKCRMQVDPQKYKGIFNGFSVTLKEDGVRGLAKGWAPTFLGYSMQGLCKFGFYEVFKVLYSNMLGEENTYLWRTSLYLAASASAEFFADIALAPMEAAKVRIQTQPGYANTLRDAAPKMYKEEGLKAFYKGVAPLWMRQIPYTMMKFACFERTVEALYKFVVPKPRSECSKPEQLVVTFVAGYIAGVFCAIVSHPADSVVSVLNKEKGSSASLVLKRLGFKGVWKGLFARIIMIGTLTALQWFIYDSVKVYFRLPRPPPPEMPESLKKKLGLTQ
B4: PGK1 (protein)
chain: SLSNKLTLDKLDVKGKRVVMRVDFNVPMKNNQITNNQRIKAAVPSIKFCLDNGAKSVVLMSHLGRPDGVPMPDKYSLEPVAVELKSLLGKDVLFLKDCVGPEVEKACANPAAGSVILLENLRFHVEEEGKGKDASGNKVKAEPAKIEAFRASLSKLGDVYVNDAFGTAHRAHSSMVGVNLPQKAGGFLMKKELNYFAKALESPERPFLAILGGAKVADKIQLINNMLDKVNEMIIGGGMAFTFLKVLNNMEIGTSLFDEEGAKIVKDLMSKAEKNGVKITLPVDFVTADKFDENAKTGQATVASGIPAGWMGLDCGPESSKKYAEAVTRAKQIVWNGPVGVFEWEAFARGTKALMDEVVKATSRGCITIIGGGDTATCCAKWNTEDKVSHVSTGGGASLELLEGKVLPGVDALSNI
B5: OS9 (protein)
chain: GGVGSLNLEELSEMRYGIEILPLPVMGGQSQSSDVVIVSSKYKQRYECRLPAGAIHFQREREEETPAYQGPGIPELLSPMRDAPCLLKTKDWWTYEFCYGRHIQQYHMEDSEIKGEVLYLGYYQSAFDWDDETAKASKQHRLKRYHSQTYGNGSKCDLNGRPREAEVRFLCDEGAGISGDYIDRVDEPLSCSYVLTIRTPRLCPHPLLRPPPSAAPQAILCHPSLQPEEYMAYVQRQADSKQYGDKIIEELQDLGPQVWSETKSGVAPQKMAGASPTKDDSKDSDFWKMLNEPEDQAPGGEEVPAEEQDPSPEAADSASGAPNDFQNNVQVKVIRSPADLIRFIEELKGGTKKGKPNIGQEQPVDDAAEVPQREPEKERGDPERQREMEEEEDEDEDEDEDEDERQLLGEFEKELEGILLPSDRDRLRSETEKELDPDGLKKESERDRAMLALTSTLNKLIKRLEEKQSPELVKKHKKKRVVPKKPPPSPQPTEEDPEHRVRVRVTKLRLGGPNQDLTVLEMKRENPQLKQIEGLVKELLEREGLTAAGKIEIKIVRPWAEGTEEGARWLTDEDTRNLKEIFFNILVPGAEEAQKERQRQKELESNYRRVWGSPGGEGTGDLDEFDF
B6: SMN1 (protein)
chain: AMSSGGSGGGVPEQEDSVLFRRGTGQSDDSDIWDDTALIKAYDKAVASFKHALKNGDICETSGKPKTTPKRKPAKKNKSQKKNTAASLQQWKVGDKCSAIWSEDGCIYPATIASIDFKRETCVVVYTGYGNREEQNLSDLLSPICEVANNIEQNAQENENESQVSTDESENSRSPGNKSDNIKPKSAPWNSFLPPPPPMPGPRLGPGKPGLKFNGPPPPPPPPPPHLLSCWLPPFPSGPPIIPPPPPICPDSLDDADALGSMLISWYMSGYHTGYYMEMLA
B7: GNAS (protein)
chain: MGVRNCLYGNNMSGQRDIPPEIGEQPEQPPLEAPGAAAPGAGPSPAEEMETEPPHNEPIPVENDGEACGPPEVSRPNFQVLNPAFREAGAHGSYSPPPEEAMPFEAEQPSLGGFWPTLEQPGFPSGVHAGLEAFGPALMEPGAFSGARPGLGGYSPPPEEAMPFEFDQPAQRGCSQLLLQVPDLAPGGPGAAGVPGAPPEEPQALRPAKAGSRGGYSPPPEETMPFELDGEGFGDDSPPPGLSRVIAQVDGSSQFAAVAASSAVRLTPAANAPPLWVPGAIGSPSQEAVRPPSNFTGSSPWMEISGPPFEIGSAPAGVDDTPVNMDSPPIALDGPPIKVSGAPDKRERAERPPVEEEAAEMEGAADAAEGGKVPSPGYGSPAAGAASADTAARAAPAAPADPDSGATPEDPDSGTAPADPDSGAFAADPDSGAAPAAPADPDSGAAPDAPADPDSGAAPDAPADPDAGAAPEAPAAPAAAETRAAHVAPAAPDAGAPTAPAASATRAAQVRRAASAAPASGARRKIHLRPPSPEIQAADPPTPRPTRASAWRGKSESSRGRRVYYDEGVASSDDDSSGDESDDGTSGCLRWFQHRRNRRRRKPQRNLLRNFLVQAFGGCFGRSESPQPKASRSLKVKKVPLAEKRRQMRKEALEKRAQKRAEKKRSKLIDKQLQDEKMGYMCTHRLLLLGAGESGKSTIVKQMRILHVNGFNGEGGEEDPQAARSNSDGEKATKVQDIKNNLKEAIETIVAAMSNLVPPVELANPENQFRVDYILSVMNVPDFDFPPEFYEHAKALWEDEGVRACYERSNEYQLIDCAQYFLDKIDVIKQADYVPSDQDLLRCRVLTSGIFETKFQVDKVNFHMFDVGGQRDERRKWIQCFNDVTAIIFVVASSSYNMVIREDNQTNRLQEALNLFKSIWNNRWLRTISVILFLNKQDLLAEKVLAGKSKIEDYFPEFARYTTPEDATPEPGEDPRVTRAKYFIRDEFLRISTASGDGRHYCYPHFTCAVDTENIRRVFNDCRDIIQRMHLRQYELL
B8: TRIM28 (protein)
chain: AASAAAASAAAASAASGSPGPGEGSAGGEKRSTAPSAAASASASAAASSPAGGGAEALELLEHCGVCRERLRPEREPRLLPCLHSACSACLGPAAPAAANSSGDGGAAGDGTVVDCPVCKQQCFSKDIVENYFMRDSGSKAATDAQDANQCCTSCEDNAPATSYCVECSEPLCETCVEAHQRVKYTKDHTVRSTGPAKSRDGERTVYCNVHKHEPLVLFCESCDTLTCRDCQLNAHKDHQYQFLEDAVRNQRKLLASLVKRLGDKHATLQKSTKEVRSSIRQVSDVQKRVQVDVKMAILQIMKELNKRGRVLVNDAQKVTEGQQERLERQHWTMTKIQKHQEHILRFASWALESDNNTALLLSKKLIYFQLHRALKMIVDPVEPHGEMKFQWDLNAWTKSAEAFGKIVAERPGTNSTGPAPMAPPRAPGPLSKQGSGSSQPMEVQEGYGFGSGDDPYSSAEPHVSGVKRSRSGEGEVSGLMRKVPRVSLERLDLDLTADSQPPVFKVFPGSTTEDYNLIVIERGAAAAATGQPGTAPAGTPGAPPLAGMAIVKEEETEAAIGAPPTATEGPETKPVLMALAEGPGAEGPRLASPSGSTSSGLEVVAPEGTSAPGGGPGTLDDSATICRVCQKPGDLVMCNQCEFCFHLDCHLPALQDVPGEEWSCSLCHVLPDLKEEDGSLSLDGADSTGVVAKLSPANQRKCERVLLALFCHEPCRPLHQLATDSTFSLDQPGGTLDLTLIRARLQEKLSPPYSSPQEFAQDVGRMFKQFNKLTEDKADVQSIIGLQRFFETRMNEAFGDTKFSAVLVEPPPMSLPGAGLSSQELSGGPGDGP

The first test concerns the target T1, B3GNT2. The test is described as follows: Co-IP of FLAG-tagged B3GNT2 followed by mass spectrometry. In kind it is cell-based. Details: C-term IgG / C-term flag: unit not given here. The note with it: Co-IP with FLAG antibody, C-terminally FLAG-tagged B3GNT2; mass spectrometry count, unit not given. An outline of the steps:
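Co-purifying proteins were identified by fractionated nano-LC–MS/MS on an Orbitrap Elite, run data-dependent. Beforehand, lysates in 1% Triton X-100/HEPES buffer were incubated overnight at 4° C with anti-FLAG or […] and pulled down on Protein A/G magnetic beads for 4 h. Duplicate biological replicates.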
As to B1, the C-term flag was determined as 8.

In the case of B2, the C-term flag is on record as 8.

Take B3: the C-term flag amounted to 9.

Turning to B4, the C-term flag worked out at 2.

With B5, the C-term flag was 9.

B6 registered a C-term flag of 14.

B7: the C-term flag is given as 2.

With B8, the C-term flag is reported as 8.

Staying with this test, now noted: Co-IP with FLAG antibody, N-terminally FLAG-tagged B3GNT2; mass spectrometry count, unit not given.
On to B1, for which the “N-term FLAG” value stood at 5.

Turning to B2, the “N-term FLAG” value is 4.

On to B3, for which the “N-term FLAG” value is on record as 4.

For B4, the “N-term FLAG” value came to 0.

For the molecule B5, the “N-term FLAG” value came out at 3.

For B6, the “N-term FLAG” value is on record as 10.

In the case of B7, the “N-term FLAG” value is given as 0.

As to B8, the “N-term FLAG” value came to 4.

The test is the same for the next values; noted with them: Co-IP with IgG control antibody, C-terminally FLAG-tagged B3GNT2; mass spectrometry count, unit not given.
As to B1, the “C-term IgG” value is recorded as 0.

For B2, the “C-term IgG” value is on record as 0.

On to B3, for which the “C-term IgG” value stood at 0.

As to B4, the “C-term IgG” value turned out to be 0.

Take B5: the “C-term IgG” value is 0.

Consider B6, for which the “C-term IgG” value stood at 2.

As for B7, the “C-term IgG” value turned out to be 0.

As to B8, the “C-term IgG” value was found to be 0.

Staying with this test, now noted: Co-IP with IgG control antibody, N-terminally FLAG-tagged B3GNT2; mass spectrometry count, unit not given.
In the case of B1, the “N-term IgG” value is reported as 0.

As for B2, the “N-term IgG” value is reported as 0.

B3: the “N-term IgG” value was 0.

For B4, the “N-term IgG” value turned out to be 0.

As for B5, the “N-term IgG” value was determined as 0.

As to B6, the “N-term IgG” value amounted to 0.

Take B7: the “N-term IgG” value worked out at 0.

Turning to B8, the “N-term IgG” value is on record as 0.
